Laboratory results from PMC9622684, “Characterization of an Escherichia coli-derived triple-type chimeric vaccine against human papillomavirus types 39, 68 and 70” (NPJ Vaccines, 2022).

B1: HPV39 L1 (15–505 aa), wild-type L1-only virus-like particle (domain or fragment)
chain: PPSVAKVVNTDDYVTRTGIYYYAGSSRLLTVGHPYFKVGMNGGRKQDIPKVSAYQYRVFRVTLPDPNKFSIPDASLYNPETQRLVWACVGVEVGRGQPLGVGISGHPLYNRQDDTENSPFSSTTNKDSRDNVSVDYKQTQLCIIGCVPAIGEHWGKGKACKPNNVSTGDCPPLELVNTPIEDGDMIDTGYGAMDFGALQETKSEVPLDICQSICKYPDYLQMSADVYGDSMFFCLRREQLFARHFWNRGGMVGDAIPAQLYIKGTDIRANPGSSVYCPSPSGSMVTSDSQLFNKPYWLHKAQGHNNGICWHNQLFLTVVDTTRSTNFTLSTSIESSIPSTYDPSKFKEYTRHVEEYDLQFIFQLCTVTLTTDVMSYIHTMNSSILDNWNFAVAPPPSASLVDTYRYLQSAAITCQKDAPAPEKKDPYDGLKFWNVDLREKFSLELDQFPLGRKFLLQARVRRRPTIGPRKRPAASTSSSSATKHKRKRVSK
notes: Major capsid protein L1 of human papillomavirus type 39, residues 15-505 as printed; chosen from full-length and 5-, 10-, 15-aa N-terminal truncations; Non-fusion expression, no tag; Copies: 72 pentamers (T = 7 capsid) as printed, i.e. 360 chains; also called WT HPV39; HPV39 VLP; source: E. coli ER2566 (pTO-T7), purified (SP or XS sepharose; self-assembly on removal of DTT, Superdex 200); copies: …
B2: HPV70 L1 (10–506 aa), wild-type L1-only virus-like particle (domain or fragment, human papillomavirus type 70, UniProt P50793 10-504, looked up)
chain: TVYLPPPSVAKVVNTDDYVTRTGIYYYAGSSRLLTVGHPYFKVPVNGGRKQEIPKVSAYQYRVFRVSLPDPNKFGLPDPSLYNPDTQRLVWACIGVEIGRGQPLGVGVSGHPLYNRLDDTENSHFSSAVSTQDSRDNVSVDYKQTQLCIIGCVPAMGEHWAKGKACKSTQQGDCPPLELVNTAIEDGDMIDTGYGAMDFRTLQETKSEVPLDICQSVCKYPDYLQMSADVYGDSMFFCLRKEQLFARHFWNRGGMVGDTIPSELYIKGTDIRERPGTHVYSPSPSGSMVSSDSQLFNKPYWLHKAQGHNNGICWHNQLFITVVDTTRSTNFTLSACTETAIPAVYSPTKFKEYTRHVEEYDLQFIFQLCTITLTADVMAYIHTMNPAILDNWNIGVTPPPSASLVDTYRYLQSAAIACQKDAPTPEKKDPYDDLKFWNVDLKEKFSTELDQFPLGRKFLLQVGARRRPTIGPRKRPASAKSSSSASKHKRKRVSK
notes: Major capsid protein L1 of human papillomavirus type 70, residues 10-506 as printed; chosen from full-length and 5-, 10-, 15-aa N-terminal truncations; Non-fusion expression, no tag; Copies: 72 pentamers (T = 7 capsid) as printed, i.e. 360 chains; also called WT HPV70; HPV70 VLP; source: E. coli ER2566 (pTO-T7), purified (SP or XS sepharose; self-assembly on removal of DTT, Superdex 200); copies: …

Key:
[1] = target: HPV68 L1 (0–505 aa), wild-type L1-only virus-like particle (human papillomavirus type 68); assay: cryo-EM structure; VLPs (~2.0 mg/mL) vitrified on Quantifoil grids; icosahedral 3D reconstruction (AUTO3DEM or cisTEM)
[2] = target: the molecule itself; assay: as above

| Molecule | stoichiometry N [1] | stoichiometry N [2] |
| --- | --- | --- |
| HPV68 L1 (0–505 aa), wild-type L1-only virus-like particle (natural protein) | 72 pentamers | – |
| B1 | – | 72 pentamers |
| B2 | – | 72 pentamers |
